The record followed here is patent publication US20040146507A1 (Genentech, published 2004).

Where two headings read alike, the source gives them in different places.

The target of experiment [1] is T1, human CD11a (human, UniProt P20701 26-1170).
T1 construct: whole, on cells; On Jurkat T-cells or human peripheral blood mononuclear cells, as part of LFA-1; also called CD11a on Jurkat cells; alpha subunit of LFA-1
Description: FACScan, Jurkat cells. The method, then:
(§1) Aliquots of 10⁶ Jurkat T-cells were incubated with serial dilutions of humanized and control antibodies in PBS-0.1% BSA-10 mM sodium azide for 45 min at 4° C. The cells were washed and then incubated in fluorescein-conjugated goat anti-human F(ab′)₂ (Organon Teknika, Westchester, Pa.) for 45 min at 4° C. Cells were washed and analysed on a FACScan (Becton Dickinson, Mountain View, Calif.). 8×10³ cells were acquired by list mode and gated by forward light scatter versus side light scatter, thereby excluding dead cells and debris.

Experiment [2] has as its target T1, human CD11a. Briefly: cell-based or functional assay.
The target in experiment [3] is T2, rhesus CD11a (rhesus, UniProt H9Z8N3 26-1169).
T2 construct: whole, on cells; On rhesus peripheral blood lymphocytes or leukocytes; also called rhCD11a
T2 sequence: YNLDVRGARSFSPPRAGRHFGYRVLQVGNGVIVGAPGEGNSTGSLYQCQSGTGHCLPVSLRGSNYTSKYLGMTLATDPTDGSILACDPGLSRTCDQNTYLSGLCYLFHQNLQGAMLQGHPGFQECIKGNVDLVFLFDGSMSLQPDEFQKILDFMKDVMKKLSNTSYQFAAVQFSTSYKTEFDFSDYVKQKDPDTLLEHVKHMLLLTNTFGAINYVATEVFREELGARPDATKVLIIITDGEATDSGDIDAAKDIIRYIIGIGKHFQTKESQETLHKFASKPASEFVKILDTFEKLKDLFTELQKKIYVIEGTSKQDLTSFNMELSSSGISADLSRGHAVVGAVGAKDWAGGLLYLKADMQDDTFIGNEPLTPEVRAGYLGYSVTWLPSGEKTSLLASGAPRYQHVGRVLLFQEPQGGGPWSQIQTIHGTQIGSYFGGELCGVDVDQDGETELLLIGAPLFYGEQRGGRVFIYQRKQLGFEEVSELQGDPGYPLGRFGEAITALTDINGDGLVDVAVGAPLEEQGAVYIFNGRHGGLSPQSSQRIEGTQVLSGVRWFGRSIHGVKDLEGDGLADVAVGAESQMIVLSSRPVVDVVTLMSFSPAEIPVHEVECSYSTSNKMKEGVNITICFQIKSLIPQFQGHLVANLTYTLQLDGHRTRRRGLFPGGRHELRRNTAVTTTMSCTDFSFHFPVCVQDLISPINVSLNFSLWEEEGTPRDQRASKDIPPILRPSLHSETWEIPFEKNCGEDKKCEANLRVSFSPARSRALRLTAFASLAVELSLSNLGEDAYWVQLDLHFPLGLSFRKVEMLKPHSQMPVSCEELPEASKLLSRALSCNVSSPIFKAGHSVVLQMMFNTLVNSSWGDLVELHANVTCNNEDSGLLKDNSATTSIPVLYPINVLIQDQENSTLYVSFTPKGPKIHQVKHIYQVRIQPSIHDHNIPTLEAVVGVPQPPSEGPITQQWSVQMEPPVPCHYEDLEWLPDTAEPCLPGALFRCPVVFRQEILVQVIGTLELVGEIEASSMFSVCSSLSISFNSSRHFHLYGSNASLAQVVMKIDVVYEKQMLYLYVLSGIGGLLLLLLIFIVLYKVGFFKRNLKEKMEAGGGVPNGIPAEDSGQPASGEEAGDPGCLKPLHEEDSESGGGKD
Description: rhesus PBL binding.

The target in experiment [4] is T2, rhesus CD11a. Briefly: rhesus PBL binding. The source holds these as a separate data set.
The target of experiment [5] is T2, rhesus CD11a. Briefly: rhesus PBL binding. This is another data set of the same source.
For experiment [6], the target named is T1, human CD11a. Briefly: FACScan, Jurkat cells. The method, then: as §1
(§2) To determine which CDR residues were involved in binding to human CD11a an alanine-scan (Cunningham et al., Science 244:1081 (1989)) was performed on the CDR residues of HuIgG1. Each mutant was tested for binding to CD11a on Jurkat cells. In the light chain only CDR-L3 contributes to binding.
The source holds these as a separate data set.
Target sequence in this assay (P20701 26-1170): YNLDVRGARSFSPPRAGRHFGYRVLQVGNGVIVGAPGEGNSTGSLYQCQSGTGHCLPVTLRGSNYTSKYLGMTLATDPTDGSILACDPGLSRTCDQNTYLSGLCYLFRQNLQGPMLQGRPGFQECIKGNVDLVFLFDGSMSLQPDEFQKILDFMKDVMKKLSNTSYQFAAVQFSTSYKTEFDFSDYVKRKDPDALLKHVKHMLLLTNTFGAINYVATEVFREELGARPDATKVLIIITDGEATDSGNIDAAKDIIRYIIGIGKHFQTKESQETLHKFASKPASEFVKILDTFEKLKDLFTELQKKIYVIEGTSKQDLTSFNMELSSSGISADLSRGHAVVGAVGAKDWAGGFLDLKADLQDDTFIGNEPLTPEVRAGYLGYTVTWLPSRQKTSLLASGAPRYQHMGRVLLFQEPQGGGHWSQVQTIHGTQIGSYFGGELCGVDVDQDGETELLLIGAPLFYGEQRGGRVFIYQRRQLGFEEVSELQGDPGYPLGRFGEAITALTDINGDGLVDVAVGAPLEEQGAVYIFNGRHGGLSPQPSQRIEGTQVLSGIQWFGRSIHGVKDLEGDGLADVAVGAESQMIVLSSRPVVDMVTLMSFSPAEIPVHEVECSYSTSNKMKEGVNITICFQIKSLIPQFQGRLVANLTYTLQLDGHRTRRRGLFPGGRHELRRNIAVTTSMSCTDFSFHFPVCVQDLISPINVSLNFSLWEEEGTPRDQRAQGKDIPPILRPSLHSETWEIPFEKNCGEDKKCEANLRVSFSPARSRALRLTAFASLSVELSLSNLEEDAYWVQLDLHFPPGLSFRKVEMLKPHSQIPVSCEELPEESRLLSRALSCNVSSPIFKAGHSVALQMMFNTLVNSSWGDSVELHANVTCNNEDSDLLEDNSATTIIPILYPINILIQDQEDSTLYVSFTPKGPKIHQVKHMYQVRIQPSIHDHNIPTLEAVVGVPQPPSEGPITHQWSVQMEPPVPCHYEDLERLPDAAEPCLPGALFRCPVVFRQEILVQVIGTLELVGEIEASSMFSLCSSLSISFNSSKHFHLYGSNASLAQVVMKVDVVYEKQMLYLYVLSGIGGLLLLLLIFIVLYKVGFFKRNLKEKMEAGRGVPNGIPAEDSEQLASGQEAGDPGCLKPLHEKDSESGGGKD

Experiment [7] has as its target T2, rhesus CD11a. Description: rhesus PBL binding. This is another data set of the same source.
The target in experiment [8] is T1, human CD11a. Description: FACScan, Jurkat cells. The method, then: as §1, §2
The source holds these as a separate data set.

Experiment [9] has as its target T2, rhesus CD11a. Description: rhesus PBL binding; end of range assigned by the printed EC50s.

B1: chimeric MHM24 IgG1 (antibody, V domains shown)
VH: EVQLQQPGAELMRPGASVKLSCKASGYSFTGHWMNWVRQRPGQGLEWIGMIHPSDSETRLNQKFKDKATLTVDKSSSSAYMQLSSPTSEDSAVYYCARGIYFYGTTYFDYWGQGTTLTVSS
VL: DVQITQSPSYLAASPGETISINCRASKTISKYLAWYQEKPGKTNKLLIYSGSTLQSGIPSRFSGSGSGTDFTLTISSLEPEDFAMYYCQQHNEYPLTFGTGTKLELKR
notes: Murine VL and VH fused to human constant light and heavy (IgG1) chains; also called chIgG1; chimeric IgG1
Regarding B1, in experiment [1], the EC50 was 5.2 ng/mL and the “EC50 F(ab)/EC50 F(ab)-2” value was 0.006 ratio. For the same molecule, in experiment [2], the “IC50, blocking of cell adhesion, Jurkat: HuK” value came out at 0.1 nM.

B2: HuIgG1 mutant AspH54Ala (antibody, V domains shown)
VH: EVQLVESGGGLVQPGGSLRLSCAASGYSFTGHWMNWVRQAPGKGLEWVGMIHPSASETRYNQKFKDRFTISVDKSKNTLYLQMNSLRAEDTAVYYCARGIYFYGTTYFDYWGQGTLVTVSS
VL: DIQMTQSPSSLSASVGDRVTITCRASKTISKYLAWYQQKPGKAPKLLIYSGSTLQSGVPSRFSGSGSGTDFTLTISSLQPEDFATYYCQQHNEYPLTFGQGTKVEIK
notes: HuIgG1 mutant, human IgG1; Kabat numbering
With B2, in experiment [3], the “fold improvement in binding over HuIgG1” value was determined as 3 fold. Also, the “Var.EC50/HuIgG1 EC50” value was found to be 0.3 ratio in experiment [4] and 147 ratio in [6]. Further, the “Mutant EC50/HuIgG1 EC50” value turned out to be 0.3 ratio in experiment [5] and 147 ratio in experiment [1].

B3: HuIgG1 mutant H2C11 (antibody, V domains shown)
VH: EVQLVESGGGLVQPGGSLRLSCAASGYSFTGHWMNWVRQAPGKGLEWVGMIAPASSNTRYNQKFKDRFTISVDKSKNTLYLQMNSLRAEDTAVYYCARGIYFYGTTYFDYWGQGTLVTVSS
VL: DIQMTQSPSSLSASVGDRVTITCRASKTISKYLAWYQQKPGKAPKLLIYSGSTLQSGVPSRFSGSGSGTDFTLTISSLQPEDFATYYCQQHNEYPLTFGQGTKVEIKR
Consider B3, for which the EC50 in experiment [3] is 0.11 nM. Moreover, the “Var.EC50/HuIgG1 EC50” value in experiment [7] was 0.002 ratio; in [8] it was 24.9 ratio. The “fold improvement over EC50 of HuIgG1 for rhesus CD11a” value in experiment [9] lay in the range of 240 to 415 fold. In addition, the “fold weaker than EC50 of HuIgG1 for human CD11a” value in experiment [9] was in the range of 3 to 5 fold.

B4: HuIgG1 mutant H2A1 (antibody, V domains shown)
VH: EVQLVESGGGLVQPGGSLRLSCAASGYSFTGHWMNWVRQAPGKGLEWVGMIAPADSETRYNQKFKDRFTISVDKSKNTLYLQMNSLRAEDTAVYYCARGIYFYGTTYFDYWGQGTLVTVSS
VL: DIQMTQSPSSLSASVGDRVTITCRASKTISKYLAWYQQKPGKAPKLLIYSGSTLQSGVPSRFSGSGSGTDFTLTISSLQPEDFATYYCQQHNEYPLTFGQGTKVEIK
notes: as for B2
For B4, the “fold improvement in binding over HuIgG1” value in experiment [3] was 77 fold. For the same molecule, the “Var.EC50/HuIgG1 EC50” value in [4] stood at 0.013 ratio; in experiment [7], 0.013 ratio; in experiment [6], 10.8 ratio; in [8], 10.8 ratio.

B5: HuIgG1 mutant AspH54Asn (antibody, V domains shown)
VH: EVQLVESGGGLVQPGGSLRLSCAASGYSFTGHWMNWVRQAPGKGLEWVGMIHPSNSETRYNQKFKDRFTISVDKSKNTLYLQMNSLRAEDTAVYYCARGIYFYGTTYFDYWGQGTLVTVSS
VL: DIQMTQSPSSLSASVGDRVTITCRASKTISKYLAWYQQKPGKAPKLLIYSGSTLQSGVPSRFSGSGSGTDFTLTISSLQPEDFATYYCQQHNEYPLTFGQGTKVEIK
notes: as for B2
Turning to B5, the “fold improvement in binding over HuIgG1” value in experiment [3] amounted to 10 fold. The “Mutant EC50/HuIgG1 EC50” value in [5] amounted to 0.1 ratio; in experiment [1] it was 26 ratio.

B6: HuIgG1 mutant AspH54Ser (antibody, V domains shown)
VH: EVQLVESGGGLVQPGGSLRLSCAASGYSFTGHWMNWVRQAPGKGLEWVGMIHPSSSETRYNQKFKDRFTISVDKSKNTLYLQMNSLRAEDTAVYYCARGIYFYGTTYFDYWGQGTLVTVSS
VL: DIQMTQSPSSLSASVGDRVTITCRASKTISKYLAWYQQKPGKAPKLLIYSGSTLQSGVPSRFSGSGSGTDFTLTISSLQPEDFATYYCQQHNEYPLTFGQGTKVEIK
notes: HuIgG1 mutant, human IgG1; Kabat numbering; also called AspH54 change to Ser
Consider B6, for which, in [5], the “Mutant EC50/HuIgG1 EC50” value worked out at 0.9 ratio.

B7: HuIgG1 mutant GluH56Ala (antibody, V domains shown)
VH: EVQLVESGGGLVQPGGSLRLSCAASGYSFTGHWMNWVRQAPGKGLEWVGMIHPSDSATRYNQKFKDRFTISVDKSKNTLYLQMNSLRAEDTAVYYCARGIYFYGTTYFDYWGQGTLVTVSS
VL: DIQMTQSPSSLSASVGDRVTITCRASKTISKYLAWYQQKPGKAPKLLIYSGSTLQSGVPSRFSGSGSGTDFTLTISSLQPEDFATYYCQQHNEYPLTFGQGTKVEIK
notes: as for B2
In the case of B7, the “fold improvement in binding over HuIgG1” value in experiment [3] stood at 3 fold. Moreover, the “Var.EC50/HuIgG1 EC50” value in experiment [4] came to 0.3 ratio; in experiment [6], 4 ratio.

B8: HuIgG1 mutant H2 (antibody, V domains shown)
VH: EVQLVESGGGLVQPGGSLRLSCAASGYSFTGHWMNWVRQAPGKGLEWVGMIAPADAETRYNQKFKDRFTISVDKSKNTLYLQMNSLRAEDTAVYYCARGIYFYGTTYFDYWGQGTLVTVSS
VL: DIQMTQSPSSLSASVGDRVTITCRASKTISKYLAWYQQKPGKAPKLLIYSGSTLQSGVPSRFSGSGSGTDFTLTISSLQPEDFATYYCQQHNEYPLTFGQGTKVEIK
notes: as for B2
For the molecule B8, in experiment [3], the “fold better binding than HuIgG1” value was 18 fold. Also, the figures for the “Var.EC50/HuIgG1 EC50” value in experiment [4] and in experiment [6] were 0.055 ratio and 14.1 ratio, respectively.

B9: HuIgG1 mutant AspH54Gln (antibody, V domains shown)
VH: EVQLVESGGGLVQPGGSLRLSCAASGYSFTGHWMNWVRQAPGKGLEWVGMIHPSQSETRYNQKFKDRFTISVDKSKNTLYLQMNSLRAEDTAVYYCARGIYFYGTTYFDYWGQGTLVTVSS
VL: DIQMTQSPSSLSASVGDRVTITCRASKTISKYLAWYQQKPGKAPKLLIYSGSTLQSGVPSRFSGSGSGTDFTLTISSLQPEDFATYYCQQHNEYPLTFGQGTKVEIK
notes: HuIgG1 mutant, human IgG1; Kabat numbering; also called AspH54 change to Gln
In the case of B9, the “Mutant EC50/HuIgG1 EC50” value in experiment [5] was 4.4 ratio; in experiment [1] it was 20 ratio.

B10: HuIgG1 mutant AspH54Lys (antibody, V domains shown)
VH: EVQLVESGGGLVQPGGSLRLSCAASGYSFTGHWMNWVRQAPGKGLEWVGMIHPSKSETRYNQKFKDRFTISVDKSKNTLYLQMNSLRAEDTAVYYCARGIYFYGTTYFDYWGQGTLVTVSS
VL: DIQMTQSPSSLSASVGDRVTITCRASKTISKYLAWYQQKPGKAPKLLIYSGSTLQSGVPSRFSGSGSGTDFTLTISSLQPEDFATYYCQQHNEYPLTFGQGTKVEIK
notes: HuIgG1 mutant, human IgG1; Kabat numbering; also called AspH54 change to Lys
For B10, the “Mutant EC50/HuIgG1 EC50” value in experiment [5] stood at 3.8 ratio.

What is called EC50 is the concentration needed to bring the measured effect to its halfway point.
